Laboratory results as given in patent US20200010818, “EVALUATION AND IMPROVEMENT OF NUCLEASE CLEAVAGE SPECIFICITY” (President and Fellows of Harvard College, published 2020).

Tests used:
Conditions in all cases: tags: FokI obligate heterodimer; in vitro selection used in vitro-translated protein; chain copies: 2 (stated heterodimer)
VF2468 ZFN heterodimer [1] = target: T1, VF2468 ZFN heterodimer (UniProt P14870;P14870 SEQ:1-324,SEQ:1-324); assay: cell_activity; K562
Procedure: (§1) PCR for 37 potential CCR5-224 substrates and 97 potential VF2468 substrates was performed with Phusion DNA Polymerase (NEB) and primers “[ZFN] […] fwd” and “[ZFN] […] rev” (Table 9) in 1× Phusion HF Buffer supplemented with 3% DMSO. Primers were designed using Primer3³³. The amplified DNA was purified with the Qiagen PCR Purification Kit, eluted with 10 mM Tris-HCl, pH 8.5, and quantified by 1K Chip on a LabChip GX instrument (Caliper Life Sciences) and combined into separate equimolar pools for the catalytically active and empty vector control samples. PCR products were not obtained for 3 CCR5 sites and 7 VF2468 sites, which excluded these samples from further analysis. Multiplexed Illumina library preparation was performed according to the manufacturer's specifications, except that AMPure XP beads (Agencourt) were used for purification following adapter ligation and PCR enrichment steps. Illumina indices 11 (“GGCTAC”) and 12 (“CTTGTA”) were used for ZFN-treated libraries while indices 4 (“TGACCA”) and 6 (“GCCAAT”) were used for the empty vector controls. Library concentrations were quantified by KAPA Library Quantification Kit for Illumina Genome Analyzer Platform (Kapa Biosystems). Equal amounts of the barcoded libraries derived from active- and empty vector-treated cells were diluted to 10 nM and subjected to single read sequencing on an Illumina HiSeq 2000 at the Harvard University FAS Center for Systems Biology Core facility. Sequences were analyzed using Protocol 9 for active ZFN samples and empty vector controls.

VF2468 ZFN heterodimer [2] = target: T1, VF2468 ZFN heterodimer; assay: cell_activity; K562; printed value
Procedure: as §1

CCR5-224 ZFN heterodimer = CCR5-224 ZFN heterodimer (UniProt P14870; SEQ:1-353,SEQ:1-352); assay: cell_activity; K562; in vitro selected at 4 nM
Chain of CCR5-224 ZFN heterodimer (P14870 other isoform, or with tags, fused parts or gaps, chain 1 of 2): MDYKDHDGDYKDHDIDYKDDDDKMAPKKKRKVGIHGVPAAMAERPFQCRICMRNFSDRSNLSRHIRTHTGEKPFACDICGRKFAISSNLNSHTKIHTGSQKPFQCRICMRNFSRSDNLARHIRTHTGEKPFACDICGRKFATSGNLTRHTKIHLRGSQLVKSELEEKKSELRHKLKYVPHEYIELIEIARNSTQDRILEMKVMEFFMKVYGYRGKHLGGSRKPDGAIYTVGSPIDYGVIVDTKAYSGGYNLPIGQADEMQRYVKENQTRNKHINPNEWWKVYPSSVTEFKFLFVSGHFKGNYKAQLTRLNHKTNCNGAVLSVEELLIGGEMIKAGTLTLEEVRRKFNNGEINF
Chain of CCR5-224 ZFN heterodimer (P14870 other isoform, or with tags, fused parts or gaps, chain 2 of 2): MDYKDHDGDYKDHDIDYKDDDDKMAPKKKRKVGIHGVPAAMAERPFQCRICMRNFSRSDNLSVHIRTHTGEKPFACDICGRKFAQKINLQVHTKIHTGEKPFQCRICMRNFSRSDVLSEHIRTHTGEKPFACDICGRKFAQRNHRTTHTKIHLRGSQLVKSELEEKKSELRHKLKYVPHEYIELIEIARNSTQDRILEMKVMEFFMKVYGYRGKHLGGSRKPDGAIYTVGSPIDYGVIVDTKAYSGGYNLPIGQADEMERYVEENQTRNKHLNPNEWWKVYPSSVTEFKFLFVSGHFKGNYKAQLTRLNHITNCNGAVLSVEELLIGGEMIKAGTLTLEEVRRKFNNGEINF
Procedure: as §1

T1 sequence (P14870 other isoform, or with tags, fused parts or gaps, chain 1 of 2): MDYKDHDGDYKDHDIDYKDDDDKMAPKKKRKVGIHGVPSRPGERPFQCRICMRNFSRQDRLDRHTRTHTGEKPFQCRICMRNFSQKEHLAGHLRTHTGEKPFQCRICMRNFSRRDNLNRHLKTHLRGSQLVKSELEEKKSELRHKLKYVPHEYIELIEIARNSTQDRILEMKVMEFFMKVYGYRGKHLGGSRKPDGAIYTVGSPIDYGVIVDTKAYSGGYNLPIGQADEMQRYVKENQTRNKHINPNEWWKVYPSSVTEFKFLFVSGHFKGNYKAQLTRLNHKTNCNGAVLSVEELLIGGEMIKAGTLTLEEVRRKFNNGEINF
T1 sequence (P14870 other isoform, or with tags, fused parts or gaps, chain 2 of 2): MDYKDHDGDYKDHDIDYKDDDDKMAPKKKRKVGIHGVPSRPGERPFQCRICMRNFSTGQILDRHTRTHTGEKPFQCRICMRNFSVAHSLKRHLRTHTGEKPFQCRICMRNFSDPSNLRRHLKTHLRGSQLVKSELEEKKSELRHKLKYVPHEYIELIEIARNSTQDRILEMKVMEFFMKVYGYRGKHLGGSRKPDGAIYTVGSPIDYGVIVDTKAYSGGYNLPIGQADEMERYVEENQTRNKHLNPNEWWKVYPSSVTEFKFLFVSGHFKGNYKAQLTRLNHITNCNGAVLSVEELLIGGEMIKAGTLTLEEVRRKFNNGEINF

Row | Binder | activity (VF2468 ZFN heterodimer [1]) [% indels] | further results
1 | VF2468 24 (dsDNA) DNA 1: AGCAGCGTATCACATGAGTGAGGG DNA 2: CCCTCACTCATGTGATACGCTGCT | 0.44 | 
2 | VF2468 69 MTX2 (dsDNA) DNA 1: AGCAGCGGCGGCTGCAGTGAGGC DNA 2: GCCTCACTGCAGCCGCCGCTGCT |  | activity (VF2468 ZFN heterodimer [2]): 0.3 % indels
3 | VF2468 19 TTC4 (dsDNA) DNA 1: AGCAGAGTCTCTGAGAGTGAGGC DNA 2: GCCTCACTCTCAGAGACTCTGCT | 0.086 | 
4 | VF2468 18 (dsDNA) DNA 1: AGCAGAGTCAGACTTGAGTGAGGT DNA 2: ACCTCACTCAAGTCTGACTCTGCT | 0.1 | 
5 | VF2468 23 (dsDNA) DNA 1: AGCAGCGACGCCTGGGAGTGAGGT DNA 2: ACCTCACTCCCAGGCGTCGCTGCT | 1.1 | 
6 | VF2468 35 (dsDNA) DNA 1: AGCAGTGTCCTAAGGGGGTGAGGA DNA 2: TCCTCACCCCCTTAGGACACTGCT | 0.13 | 
7 | VF2468 29 (dsDNA) DNA 1: AGCAGGGTCAGGGCTGAGTGAGGC DNA 2: GCCTCACTCAGCCCTGACCCTGCT | 0.2 | 
8 | VF2468 15 (dsDNA) DNA 1: AGCAACGTCATATTCAGTGAGGA DNA 2: TCCTCACTGAATATGACGTTGCT | 0.06 | 
9 | VF2468 78 (dsDNA) DNA 1: AGCAATGTCAAAAAGAGTGAGGC DNA 2: GCCTCACTCTTTTTGACATTGCT | 0.15 | 
10 | CCR5-224 9 (dsDNA) DNA 1: GTCATCTTCATCAAAAGGAACTGCAAAAC DNA 2: GTTTTGCAGTTCCTTTTGATGAAGATGAC |  | activity (CCR5-224 ZFN heterodimer): 0.035 % indels
11 | CCR5-224 21 (dsDNA) DNA 1: GTCAACCTCAACACCTACAGACTGCAAAAG DNA 2: CTTTTGCAGTCTGTAGGTGTTGAGGTTGAC |  | activity (CCR5-224 ZFN heterodimer): 0.06 % indels
12 | VF2468 72 (dsDNA) DNA 1: AGAAACGTCGTGGAGGAGTGAGGG DNA 2: CCCTCACTCCTCCACGACGTTTCT | 0.042 | 
13 | VF2468 73 (dsDNA) DNA 1: AGCAAAGTCTGTACTGAGTGAGGG DNA 2: CCCTCACTCAGTACAGACTTTGCT | 1.3 | 
14 | VF2468 68 (dsDNA) DNA 1: AGCACCGTCCCCCTCAGTGAGGC DNA 2: GCCTCACTGAGGGGGACGGTGCT | 0.28 | 
15 | VF2468 28 (dsDNA) DNA 1: AGCAGCTTCTCCTGGGAGTGAGGG DNA 2: CCCTCACTCCCAGGAGAAGCTGCT | 0.32 | 
16 | VF2468 62 (dsDNA) DNA 1: TGCAGCGGCGTAGGGGAGTGAGGA DNA 2: TCCTCACTCCCCTACGCCGCTGCA |  | activity (VF2468 ZFN heterodimer [2]): 0.085 % indels
17 | VF2468 66 GBF1 (dsDNA) DNA 1: AGCAACGTCCATAGTGTGTGAGAA DNA 2: TTCTCACACACTATGGACGTTGCT |  | activity (VF2468 ZFN heterodimer [2]): 0.64 % indels
18 | CCR5-224 16 (dsDNA) DNA 1: GTCTTCCTGATGCTACCAAACTGGAAAAG DNA 2: CTTTTCCAGTTTGGTAGCATCAGGAAGAC |  | activity (CCR5-224 ZFN heterodimer): 0.019 % indels
19 | CCR5-224 11 TACR3 (dsDNA) DNA 1: GTCATCTTCATCAGCATAAACTGTAAAGT DNA 2: ACTTTACAGTTTATGCTGATGAAGATGAC |  | activity (CCR5-224 ZFN heterodimer): 0.34 % indels
20 | CCR5-224 25 WBSCR17 (dsDNA) DNA 1: GTTATCCTCAGCAAACTAAAACTGGAACAG DNA 2: CTGTTCCAGTTTTAGTTTGCTGAGGATAAC |  | activity (CCR5-224 ZFN heterodimer): 0.12 % indels
21 | CCR5-224 14 (dsDNA) DNA 1: GTCCTGCTCAGCAAAAGAAACTGAAAAAG DNA 2: CTTTTTCAGTTTCTTTTGCTGAGCAGGAC |  | activity (CCR5-224 ZFN heterodimer): 0.025 % indels
22 | CCR5-224 15 KCNB2 (dsDNA) DNA 1: ATGTTCCTCATCTCCCGAAACTGCAAATG DNA 2: CATTTGCAGTTTCGGGAGATGAGGAACAT |  | activity (CCR5-224 ZFN heterodimer): 0.071 % indels
23 | VF2468 79 (dsDNA) DNA 1: AGCACCGTGGCTTCGAGTGAGGC DNA 2: GCCTCACTCGAAGCCACGGTGCT | 0.029 | 
24 | VF2468 11 (dsDNA) DNA 1: AGCAGCGTCTCCCTTGAGTGATGG DNA 2: CCATCACTCAAGGGAGACGCTGCT | 0.04 | 
25 | VF2468 38 (dsDNA) DNA 1: AGCATCGTCTTCTGTGAGTGAGTA DNA 2: TACTCACTCACAGAAGACGATGCT |  | activity (VF2468 ZFN heterodimer [2]): 0.082 % indels
